B1: 103 (protein)
chain: MAMEIPTEEIKFLKKEDVQNIDLNGMSKKERYEIWRRIPKVELHCHLDLTFSAEFFLKWARKYNLQPNMSDDEILDHYLFTKEGKSLAEFIRKAISVSDLYRDYDFIEDLAKWAVIEKYKEGVVLMEFRYSPTFVSSSYGLDVELIHKAFIKGIKNATELLNNKIHVALICISDTGHAAASIKHSGDFAIKHKHDFVGFDHGGREIDLKDHKDVYHSVRDHGLHLTVHAGEDATLPNLNTLYTAINILNVERIGHGIRVSESDELIELVKKKDILLEVCPISNLLLNNVKSMDTHPIRKLYDAGVKVSVNSDDPGMFLSNINDNYEKLYIHLNFTLEEFMIMNNWAFEKSFVSDDVKSELKALYF
modifications: Plasmodium yoelii yoelii
B2: 98 (protein)
chain: MAIIDCHGHYTTAPAAHDAFRKAQIAHHDDPQQPAPQYPHISDDALRESIEQHQLRLLRERGADMTIFSPRASTMAHHIGNEAVSQVWTQRCNDLIARVVQLYPHTFIGVCQLPQSPGVPISHSIAELERCVNELGFVGCNLNPDPSGGHWNGVPLTDRAWYPFFEKMVELDVPAMVHVSGSCNANFHATGAHYLNADTTAFMQFLEGDLFRDFPSLRFIIPHGGGAVPYHWGRFRGLADMLGKPPLATHVMRNVFFDTCVYHQPGIDLLFEVIDIDNILFGSEMVGAVRGIDPQTGHYFDDTKRYIDALTISDADKRKVFEGNARRVYPRLDAQLRARGL
modifications: Xanthomonas campestris pv.
B3: 104 (protein)
chain: MANILQEPIDFLKKEELKNIDLSQMSKKERYKIWKRIPKCELHCHLDLCFSADFFVSCIRKYNLQPNLSDEEVLDYYLFAKGGKSLGEFVEKAIKVADIFHDYEVIEDLAKHAVFNKYKEGVVLMEFRYSPTFVAFKYNLDIELIHQAIVKGIKEVVELLDHKIHVALMCIGDTGHEAANIKASADFCLKHKADFVGFDHGGHEVDLKEYKEIFDYVRESGVPLSVHAGEDVTLPNLNTLYSAIQVLKVERIGHGIRVAESQELIDMVKEKNILLEVCPISNVLLKNAKSMDTHPIRQLYDAGVKVSVNSDDPGMFLTNINDDYEELYTHLNFTLEDFMKMNEWALEKSFMDSNIKDKIKNLYF
modifications: Plasmodium Vivax
B4: 106 (protein, listed as Pyrococcus horikoshii)
chain: MAGMKFIKNLHVSKLVIDSMKALINGTIYTSFNPLKKVSGLVISHGKVIYAGDSEVAKKIVELSGGEIVDLKGKYVMPAFFDSHLHLDELGMSLEMVDLRGAKSIEELIQRLKRGKGRIIFGFGWDQDELGEWPTRKELNAIDKPVFIYRKCFHVAVANDKMLELLNLTPSKDFDEDTGIIKEKSLEEARKVINERVLTVEDYVYYIKRAQEHLLDLGVKSVSFMSVNEKALRALFYLEREGKLSINVFAYVTPEVLDKLESIGLGRFQGNRLTIAGVKLFTDGSLGARTALLSKPYSDDPSTSGQLVMEREELIRITEKARSLGLDVAIHAIGDKALDVALDVFETTGFPGRIEHASLVRDDQLERVKNLKVRLSVQPHFIISDWWIVERVGEERVKWVYRFKDLMKVAELGFSTDSPIEPADPWLTVDAAVNRGKGKVKLYELTKDQALDIKDALHSYTYGSARVSLASDIGKLEPGFKAEYIILDRDPLVVK
B5: 9 (protein, listed as Octadecabacter antarcticus)
chain: MATPKITFEEHFMAPGFEKHSEAFLKLIPRDQAEILTRRLGDFDGERIETMDRGGITRSIISLTGPGTQGEAVEKAVSAAQGANDFLAEKISKKPDRLGGLATLPMHDPDAAARELNRAVNDLGLQGCLVNTHTHGAYYEGTDYDPFWAEVEKLGVPFYLHPSNAYVTPHVLGGMPVLQGATWGWGVETGSHALRILFGGVFDRFPDVKLVLGHMGEALPFLRWRYDSRFGAYPMGVSLDRAPSAYFGSNILITTSGVCSHPSLIGAIGEMGADAVMFSVDYPYEDTDLAVEFIETAPLEDATRVKICHDNAARLFGMPTLAAKEGA
B6: 8 (protein, listed as Metarhizium anisopliae)
chain: MARGKINFEEAFELPTLADSSREQAALYIAPKDLDRYIYHIKHPLGERLQLANSHGIGYTIYSLTVPGIQGIPDQSKAEQHATTVNDWIANEIKDHRDRLGAFAALSMHDAAQAAAELERCVRQHGFHGALLNNYQHAGPDGETYLFYDQPAYDVFWQKCVELDVPVYLHPAAPAGNYYKQMYAQRKYLVGPPLSFANDVSLHLLGLVTNGVFDRFPKLKVVVGHLGEHIPFDFWRISHWLEDVERPLAAGRGDVMSKKDLLYYFKNNIWVTTSGHFSTPTVRYVADYLGPERIMFSVDTPYETIENGVGWFDGEEDALTRALGGEDGYKKVARENAKKLFKLTKYHDCDA
B7: 105 (protein)
chain: MAIDFHVHLDLYPDPVAVARACEERQLTVLSVTTTPAAWRGTLALAAGRPHVWTALGFHPEVVSERAADLPWFDRYLPETRFVGEVGLDGSPSLRGTWTQQFAVFQHILRRCEDHGGRILSIHSRRAESEVLNCLEANPRSGTPILHWYSGSVTELRRAISLGCWFSVGPTMVRTQKGAALIRSMPRDRVLTETDGPFLELDGQAALPWDVKSVVEGLSKIWQIPASEVERIVKENVSRLLGTVR
modifications: Deinococcus radiodurans
B8: 99 (protein, listed as Ralstonia solanacearum)
chain: MAIIDCHGHFTTAPTALEDWRKRQIANLATPALGPSPDDLKISDDALTEAIRANQLRLMQARGSDLTIFSPRASFMAHHIGDFHTSATWAAICNALCHRVSQLFPDHFVGAAMLPQSPGVDIRTCIPELARCIVDYGFVGVNLNPDPSGGHWTSPPLSDPYWFPLYEKLVEYDVPAMIHVSTSCNACFHTTGAHYLNADTTAFMQVLTSDLFRRFPTLKFVIPHGGGAVPYHWGRFRGLAQELKTPPLQEHLLHNVFFDTCVYHQPGIDLLTRVIPVDNILFASEMIGAVRGIDPETGHPFDDTRRYIDQAHTLSAEDRHKIYEGNARRVYPRLDARLKARGR
B9: 7 (protein, listed as Legionella pneumophila)
chain: MAIVDFETHFITEACIDYLTQRQEVPKLVPELNGAYTMCFTPDVSLFHTSALMEELLSLNEQRLAIMDQAGVTIQVLSLTTINGIDSCPGDENKSTALAREVNDQLYSAIQRHPERFKGFASISPYDVKEGVKELERAISQLGFVGWLTHSNFGEDNYLDDKTYWPLLEAAEGLNIPIYLHPNVPIMREFGKYGFALGGSALGFEFDTALCLMRMILGGVFDAFPKLKIMLGHLGETMPFLMERLDHLYRIPDLKAYRPSIQRIPSEVLRQNVYITTSGRFFVPALRYVLEVMGEDRVLFASDYPMESLLDATRFIQDSDLSNQTKQKIFSINAKNLNLI
B10: 101 (protein, listed as Aquifex aeolicus)
chain: MAQKIALCITGASGVIYGIKLLQVLEELDFSVDLVISRNAKVVLKEEHSLTFEEVLKGLKNVRIHEENDFTSPLASGSRLVHYRGVYVVPCSTNTLSCIANGINKNLIHRVGEVALKERVPLVLLVREAPYNEIHLENMLKITRMGGVVVPASPAFYHKPQSIDDMINFVVGKLLDVLRIEHNLYKRWRG
B11: 107 (protein, listed as Rhodopseudomonas palustris)
chain: MAIIDIHGHYTTAPKALEDWRNRQIAGIKDPSVMPKVSELKISDDELQASIIENQLKKMQERGSDLTVFSPRASFMAHHIGDFNVSSTWAAICNELCYRVSQLFPDNFIGAAMLPQSPGVDPKTCIPELEKCVKEYGFVAINLNPDPSGGHWTSPPLTDRIWYPIYEKMVELEIPAMIHVSTSCNTCFHTTGAHYLNADTTAFMQCVAGDLFKDFPELKFVIPHGGGAVPYHWGRFRGLAQEMKKPLLEDHVLNNIFFDTCVYHQPGIDLLNTVIPVDNVLFASEMIGAVRGIDPRTGFYYDDTKRYIEASTILTPEEKQQIYEGNARRVYPRLDAALKAKGK
B12: 10 (protein, listed as Starkeya novella)
chain: MARKIALEEHFTTPELAGKYVARPTQSDALFADIERRLADFDELRLEMMDRAEIDLMVLSVTTPGVQGVRDTGEAIRLARGANDFLAREVQKRPSRYAGFAHLAMQDAEAAATELERAVRELGFRGALINGQTNGHYLDEDQYAPFWERVQELDVPVYLHPGNMADSPAMFAHRPELGGPIWAWTAETAAHALRLVFGGTFTRFPGAKVILGHMGETLPFLLWRLDSRREFDLGEKLAPDALPSAIIKRNIAVTTSGVCDPAPLVAALQALSDDNVMFSVDYPYEDPQLASKFIETAPIGEETRAKVCHGNAERLLGL
B13: 102 (protein, listed as Lactobacillus plantarum)
chain: MATKTFKTLDDFLGTHFIYTYDNGWEYEWYAKNDHTVDYRIHGGMVAGRWVTDQKADIVMLTEGIYKISWTEPTGTDVALDFMPNEKKLHGTIFFPKWVEEHPEITVTYQNEHIDLMEQSREKYATYPKLVVPEFANITYMGDAGQNNEDVISEAPYKEMPNDIRNGKYFDQNYHRLNK

Columns and labels:
[1] = 14C assay with IPTG-induced recombinant E. coli cells: 14CO2 captured from [14C]-carboxyl-labeled dicamba; conditions: for Enzymatic Detection level: dicamba decarboxylation activity of the protein of the given SEQ ID NO, High / Low / No; for Dicamba Decarboxylase Activity: induced recombinant E. coli cells, [14C]-carboxyl-labeled dicamba, 14CO2 capture
[2] = Saturation mutagenesis of SEQ ID NO:109: dicamba decarboxylation activity of point mutants (carbon dioxide released); conditions: decarboxylation activity (carbon dioxide released) of point mutant compared with unmutated backbone protein; backbone SEQ ID NO: 109

Molecule	Enzymatic Detection level [1]	Dicamba Decarboxylase Activity [1]	Fold Activity [2]
B1	No	No	1.7
B2	No	No	2.3
B3	No	No	2.1
B4	No	No	0.8
B5	No	No	1.2
B6	Low	Low	1.3
B7	No	No	0.9
B8	No	No	1.7
B9	No	No	1.3
B10	No	No	1.8
B11	No	No	1.7
B12	Low	Low	1.2
B13	No	No	2.6
